According to patent US20260014245A1 (MAX DELBRUECK CENTRUM F R MOLEKULARE MEDIZIN IN DER …, published 2026):

Tests used:
[1] = target: T1, MERS-CoV RBD (wild type, amino acids G372-L588, AviTag, Twin Strep tag, 6xHis) (MERS-CoV); experiment: human DPP4
[2] = target: T1, MERS-CoV RBD (wild type, amino acids …); experiment: ELISA, anti Twin-Strep readout OD 405 nm (the Twin-Strep-tagged RBD is detected)
[3] = target: T1, MERS-CoV RBD (wild type, amino acids …); experiment: ELISA on coated RBD, antibody titrated, anti human IgG OD 405 nm
[4] = target: T1, MERS-CoV RBD (wild type, amino acids …); experiment: serum pull-down with RBD coated beads

B1: recombinant human DPP4 with an N-terminal 8xHis-tag (hDPP4-N'His) (receptor)
chain: HHHHHHHHGGGSGGGSGGGSDSRKTYTLTDYLKNTYRLKLYSLRWISDHEYLYKQENNILVFNAEYGNSSVFLENSTFDEFGHSINDYSISPDGQFILLEYNYVKQWRHSYTASYDIYDLNKRQLITEERIPNNTQWVTWSPVGHKLAYVWNNDIYVKIEPNLPSYRITWTGKEDIIYNGITDWVYEEEVFSAYSALWWSPNGTFLAYAQFNDTEVPLIEYSFYSDESLQYPKTVRVPYPKAGAVNPTVKFFVVNTDSLSSVTNATSIQITAPASMLIGDHYLCDVTWATQERISLQWLRRIQNYSVMDICDYDESSGRWNCLVARQHIEMSTTGWVGRFRPSEPHFTLDGNSFYKIISNEEGYRHICYFQIDKKDCTFITKGTWEVIGIEALTSDYLYYISNEYKGMPGGRNLYKIQLSDYTKVTCLSCELNPERCQYYSVSFSKEAKYYQLRCSGPGLPLYTLHSSVNDKGLRVLEDNSALDKMLQNVQMPSKKLDFIILNETKFWYQMILPPHFDKSKKYPLLLDVYAGPCSQKADTVFRLNWATYLASTENIIVASFDGRGSGYQGDKIMHAINRRLGTFEVEDQIEAARQFSKMGFVDNKRIAIWGWSYGGYVTSMVLGSGSGVFKCGIAVAPVSRWEYYDSVYTERYMGLPTPEDNLDHYRNSTVMSRAENFKQVEYLLIHGTADDNVHFQQSAQISKALVDVGVDFQAMWYTDEDHGIASSTAHQHIYTHMSHFIKQCFSLP
notes: range 38-766
Kd [1]: 7.8 nM

B2: recombinant mouse DPP4 (mDPP4) (receptor)
chain: SKDEAAADSRRTYSLADYLKSTFRVKSYSLWWVSDFEYLYKQENNILLLNAEHGNSSIFLENSTFESFGYHSVSPDRLFVLLEYNYVKQWRHSYTASYNIYDVNKRQLITEEKIPNNTQWITWSPEGHKLAYVWKNDIYVKVEPHLPSHRITSTGEENVIYNGITDWVYEEEVFGAYSALWWSPNNTFLAYAQFNDTGVPLIEYSFYSDESLQYPKTVWIPYPKAGAVNPTVKFFIVNIDSLSSSSSAAPIQIPAPASVARGDHYLCDVVWATEERISLQWLRRIQNYSVMAICDYDKINLTWNCPSEQQHVEMSTTGWVGRFRPAEPHFTSDGSSFYKIISDKDGYKHICHFPKDKKDCTFITKGAWEVISIEALTSDYLYYISNQYKEMPGGRNLYKIQLTDHTNVKCLSCDLNPERCQYYAVSFSKEAKYYQLGCWGPGLPLYTLHRSTDHKELRVLEDNSALDRMLQDVQMPSKKLDFIVLNETRFWYQMILPPHFDKSKKYPLLLDVYAGPCSQKADASFRLNWATYLASTENIIVASFDGRGSGYQGDKIMHAINRRLGTLEVEDQIEAARQFVKMGFVDSKRVAIWGWSYGGYVTSMVLGSGSGVFKCGIAVAPVSRWEYYDSVYTERYMGLPIPEDNLDHYRNSTVMSRAEHFKQVEYLLIHGTADDNVHFQQSAQISKALVDAGVDFQAMWYTDEDHGIASSTAHQHIYSHMSHFLQQCFSLH
binding result [2]: no binding (tested: about 30 ng/µL)

B3: LCA60 (antibody, V domains shown)
VH: EVQLLESGGGLVKPGGSLRLSCEASGLTFSNVWMSWVRQAPGKGLEWVGRIKRKSEGATTDYGAPVKGRFTLSRDDSKNTVYLQMNSLKIDDTAVYYCSTLTRGGDVWSSSYYFDYWGQGALVTVSS
VL: QSALTQPASVSGSPGQSITISCTGTSSDVGTYDLVSWYQQHPGKSPKLMIYADIKRPSGVSHRFSGSKSGNTASLTISGLQSADEADYYCCLYAGSSTSVIFGGGTKVT
EC50 (read off the curve) [3]: ~0.03 µg/mL

B4: D12 (antibody, V domains shown)
VH: EVKLVESGGGLVKPGGSLKLSCAASGFTFSSYAMSWVRQTPEKRLEWVATISSGGTYTYYPDSVKGRFTISRDNAENTLYLQMSSLRSEDTAMYYCVRDGNSMDYWGQGTSVTVSS
VL: DIQMTQTTSSLSASLGDRVTIICRASQDINNYLNWYQKPDGTVKLLIYYTSRLHSGVPSRFSGSGSGSDYSLTISNLEQEDIATYFCQQANTLPPTFGAGTKLELR
EC50 (read off the curve) [3]: ~0.04 µg/mL

B5: circulating mouse DPP4 (from serum) (receptor)
chain: SRRTYSLADYLKSTFRVKSYSLWWVSDFEYLYKQENNILLLNAEHGNSSIFLENSTFESFGYHSVSPDRLFVLLEYNYVKQWRHSYTASYNIYDVNKRQLITEEKIPNNTQWITWSPEGHKLAYVWKNDIYVKVEPHLPSHRITSTGEENVIYNGITDWVYEEEVFGAYSALWWSPNNTFLAYAQFNDTGVPLIEYSFYSDESLQYPKTVWIPYPKAGAVNPTVKFFIVNIDSLSSSSSAAPIQIPAPASVARGDHYLCDVVWATEERISLQWLRRIQNYSVMAICDYDKINLTWNCPSEQQHVEMSTTGWVGRFRPAEPHFTSDGSSFYKIISDKDGYKHICHFPKDKKDCTFITKGAWEVISIEALTSDYLYYISNQYKEMPGGRNLYKIQLTDHTNVKCLSCDLNPERCQYYAVSFSKEAKYYQLGCWGPGLPLYTLHRSTDHKELRVLEDNSALDRMLQDVQMPSKKLDFIVLNETRFWYQMILPPHFDKSKKYPLLLDVYAGPCSQKADASFRLNWATYLASTENIIVASFDGRGSGYQGDKIMHAINRRLGTLEVEDQIEAARQFVKMGFVDSKRVAIWGWSYGGYVTSMVLGSGSGVFKCGIAVAPVSRWEYYDSVYTERYMGLPIPEDNLDHYRNSTVMSRAEHFKQVEYLLIHGTADDNVHFQQSAQISKALVDAGVDFQAMWYTDEDHGIASSTAHQHIYSHMSHFLQQCFSLH
binding result [4]: no binding
